Results from paper PMC9713952.

Target: T1, MBP-RAD51AP1-His6 WT (UniProt Q96B01 1-352)
T1 sequence: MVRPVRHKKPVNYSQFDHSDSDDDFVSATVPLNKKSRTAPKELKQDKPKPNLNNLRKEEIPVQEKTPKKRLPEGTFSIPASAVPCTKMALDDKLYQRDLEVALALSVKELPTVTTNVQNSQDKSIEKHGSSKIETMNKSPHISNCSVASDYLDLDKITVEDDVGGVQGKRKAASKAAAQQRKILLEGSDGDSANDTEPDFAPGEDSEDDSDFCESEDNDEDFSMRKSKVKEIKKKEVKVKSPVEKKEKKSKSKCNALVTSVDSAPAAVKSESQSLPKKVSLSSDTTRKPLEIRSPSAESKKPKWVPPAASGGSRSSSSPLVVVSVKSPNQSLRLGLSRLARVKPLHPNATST
Assay: EMSA

B1: TERRA R-loop (mixed)
DNA 1: CATTGCATATTTAAAACATGTTGGATCTCAATTTCTATTTTATTTTTATTTTTTATTTCTTTATTTTACCATGAATTCAAATGACCTCTTATCAAGTGAC
DNA 2: GTCACTTGATAAGAGGTCATTTGAATTCATCCTAACCCTAACCCTAACCCTAACCCTAACCCTAACCCTAAGAGATCCAACATGTTTTAAATATGCAATG
RNA: UUAGGGUUAGGGUUAGGGUUAGGGUUAGGGUUAGGGUUAG
- binding result: binds
